# Experimental data from article PMC7192382.
# System: MtKNOX3 homeodomain (Medicago truncatula)
# Assay: SPR
# Conditions: SPR: PBS (150 mM NaCl, 2 mM Na2HPO4)/Tween pH 7.4, BSA 670 ug/ml, protein 0-10 uM, temperature not stated; EMSA: LightShift binding buffer (stock as printed …)
row,Substance,Kd [nM]
1,IPT3-1 (MtIPT3 promoter site),2220
2,LOG1 (MtLOG1 first intron site),555
3,LOG2-1 (MtLOG2 promoter site),28000
